According to the RNAGym collection of RNA variant scans (doi:10.1021/acssynbio.7b00057):

B1: Pistol ribozyme (parent)
chain: GGGUCGUUGUUCCAUAAUCGCGUGGAUAUGGCACGCAAGUUUCUACCGGGCACCGUAAAUGUCCGACUGGAGCCGUUCGGGCGGCUAUAAACAGACCUCAGGCCCGAAGCGUGGCGGCACCUGCCGCCGGUGGUAAAAAAGAUCGGAAGAGCACACGUCU

Variants of: B1
Experiment: aptazyme ON/OFF ratio, guanine; higher = stronger switching; co-transcriptional cleavage with and without guanine

Q: For U7C U8G G9C U10C C13A, which “aptazyme ON/OFF ratio” value is on record?
A: Its value is 1.06.

Q: Which “aptazyme ON/OFF ratio” value does the source give for U7C U8G G9C U10C C13G here?
A: The value was 1.08.

Q: With U7C U8G G9C U10C C13U as the variant, how does the “aptazyme ON/OFF ratio” value read?
A: The value was 1.71.

Q: With U7C U8G G9C U10C U11C C12U C13U as the variant, how does the “aptazyme ON/OFF ratio” value read?
A: The value was 1.03.

Q: Which “aptazyme ON/OFF ratio” value does the source give for U7C U8G G9C U10C U11C C12U C13A here?
A: Its value is 1.04.

Q: Which “aptazyme ON/OFF ratio” value does the source give for U7C U8G G9C U10C U11C C12U C13G here?
A: Its value is 1.04.

Q: With U7C U8G G9C U11G C12G C13A as the variant, how does the “aptazyme ON/OFF ratio” value read?
A: Its value is 1.13.

Q: With U7C U8G G9C U11G C12G C13U as the variant, how does the “aptazyme ON/OFF ratio” value read?
A: The value was 1.09.

Q: For U7C U8G G9C U11G C12G C13G, which “aptazyme ON/OFF ratio” value is on record?
A: Its value is 1.1.

Q: For U7C U8G G9U U10C U11A C12A C13A, which “aptazyme ON/OFF ratio” value is on record?
A: Its value is 1.26.

Q: With U7C U8G G9U U10C U11A C12A C13G as the variant, how does the “aptazyme ON/OFF ratio” value read?
A: Its value is 1.15.

Q: For U7C U8G G9U U10C U11A C12A C13U, which “aptazyme ON/OFF ratio” value is on record?
A: The value was 1.24.

Q: Which “aptazyme ON/OFF ratio” value does the source give for U7C U8G G9U U10C U11A C12U C13G here?
A: The value was 1.27.

Q: With U7C U8G G9U U10C U11A C12U C13U as the variant, how does the “aptazyme ON/OFF ratio” value read?
A: The value was 1.34.

Q: Which “aptazyme ON/OFF ratio” value does the source give for U7C U8G G9U U10C U11A C12U C13A here?
A: The value was 1.24.

Q: For U7C U8G G9C U11A C12G C13U, which “aptazyme ON/OFF ratio” value is on record?
A: Its value is 1.11.

Q: With U7C U8G G9C U11A C12G C13G as the variant, how does the “aptazyme ON/OFF ratio” value read?
A: The value was 1.13.

Q: Which “aptazyme ON/OFF ratio” value does the source give for U7C U8G G9C U11A C12G C13A here?
A: Its value is 1.1.

Q: Which “aptazyme ON/OFF ratio” value does the source give for U7C U8G G9U U10A C12U here?
A: The value was 1.15.

Q: For U7C U8G G9U U10A C12G, which “aptazyme ON/OFF ratio” value is on record?
A: Its value is 1.18.

Q: With U7C U8G G9U U10A C12A as the variant, how does the “aptazyme ON/OFF ratio” value read?
A: Its value is 1.33.

Q: With U7C U8G G9U U10A C12U C13G as the variant, how does the “aptazyme ON/OFF ratio” value read?
A: Its value is 1.2.

Q: Which “aptazyme ON/OFF ratio” value does the source give for U7C U8G G9U U10A C12U C13U here?
A: The value was 1.35.

Q: For U7C U8G G9U U10A C12U C13A, which “aptazyme ON/OFF ratio” value is on record?
A: The value was 1.2.

Q: Which “aptazyme ON/OFF ratio” value does the source give for U7C U8G G9C U10A U11C C12A C13G here?
A: The value was 1.11.

Q: With U7C U8G G9C U10A U11C C12A C13U as the variant, how does the “aptazyme ON/OFF ratio” value read?
A: The value was 1.17.

Q: Which “aptazyme ON/OFF ratio” value does the source give for U7C U8G G9C U10A U11C C12A C13A here?
A: The value was 1.19.

Q: With U7C U8G G9U C12U C13A as the variant, how does the “aptazyme ON/OFF ratio” value read?
A: Its value is 1.31.

Q: With U7C U8G G9U C12U C13G as the variant, how does the “aptazyme ON/OFF ratio” value read?
A: Its value is 1.33.

Q: With U7C U8G G9U C12U C13U as the variant, how does the “aptazyme ON/OFF ratio” value read?
A: The value was 1.2.

Q: Which “aptazyme ON/OFF ratio” value does the source give for U7C U8G G9C U11A C13G here?
A: Its value is 1.06.

Q: Which “aptazyme ON/OFF ratio” value does the source give for U7C U8G G9C U11A C13A here?
A: The value was 1.17.

Q: Which “aptazyme ON/OFF ratio” value does the source give for U7C U8G G9C U11A C13U here?
A: Its value is 1.26.

Q: With U7C U8G G9C U10C U11A as the variant, how does the “aptazyme ON/OFF ratio” value read?
A: The value was 0.99.

Q: With U7C U8G G9C U10C U11C as the variant, how does the “aptazyme ON/OFF ratio” value read?
A: The value was 1.04.

Q: With U7C U8G G9C U10C U11G as the variant, how does the “aptazyme ON/OFF ratio” value read?
A: Its value is 1.16.

Q: For U7C U8G G9C U10A U11C C13U, which “aptazyme ON/OFF ratio” value is on record?
A: Its value is 1.01.

Q: Which “aptazyme ON/OFF ratio” value does the source give for U7C U8G G9C U10A U11C C13A here?
A: The value was 1.07.

Q: With U7C U8G G9C U10A U11C C13G as the variant, how does the “aptazyme ON/OFF ratio” value read?
A: Its value is 1.04.

Q: For U7C U8G G9U U10A U11C C13A, which “aptazyme ON/OFF ratio” value is on record?
A: The value was 1.05.

Q: For U7C U8G G9U U10A U11C C13U, which “aptazyme ON/OFF ratio” value is on record?
A: Its value is 1.02.

Q: For U7C U8G G9U U10A U11C C13G, which “aptazyme ON/OFF ratio” value is on record?
A: The value was 1.05.

Q: With U7C U8G G9C U10G U11G C13A as the variant, how does the “aptazyme ON/OFF ratio” value read?
A: The value was 1.13.

Q: Which “aptazyme ON/OFF ratio” value does the source give for U7C U8G G9C U10G U11G C13U here?
A: Its value is 1.11.

Q: For U7C U8G G9C U10G U11G C13G, which “aptazyme ON/OFF ratio” value is on record?
A: Its value is 1.1.

Q: With U7C U8G G9U U10C C12U C13G as the variant, how does the “aptazyme ON/OFF ratio” value read?
A: Its value is 1.32.

Q: With U7C U8G G9U U10C C12U C13A as the variant, how does the “aptazyme ON/OFF ratio” value read?
A: The value was 1.38.

Q: With U7C U8G G9U U10C C12U C13U as the variant, how does the “aptazyme ON/OFF ratio” value read?
A: Its value is 1.38.

Q: Which “aptazyme ON/OFF ratio” value does the source give for U7C U8G G9C U11G C12A C13A here?
A: Its value is 1.14.

Q: With U7C U8G G9C U11G C12A C13G as the variant, how does the “aptazyme ON/OFF ratio” value read?
A: Its value is 1.18.

Q: With U7C U8G G9C U11G C12A C13U as the variant, how does the “aptazyme ON/OFF ratio” value read?
A: Its value is 1.14.

Q: Which “aptazyme ON/OFF ratio” value does the source give for U7C U8G G9C U10C U11G C12G C13U here?
A: The value was 1.05.

Q: For U7C U8G G9C U10C U11G C12G C13G, which “aptazyme ON/OFF ratio” value is on record?
A: The value was 1.09.

Q: For U7C U8G G9C U10C U11G C12G C13A, which “aptazyme ON/OFF ratio” value is on record?
A: Its value is 1.12.

Q: For U7C U8G G9C U10G C12A, which “aptazyme ON/OFF ratio” value is on record?
A: The value was 1.21.

Q: For U7C U8G G9C U10G C12U, which “aptazyme ON/OFF ratio” value is on record?
A: The value was 1.4.

Q: Which “aptazyme ON/OFF ratio” value does the source give for U7C U8G G9C U10G C12G here?
A: Its value is 1.16.

Q: For U7C U8G G9U U10A U11C C12G C13G, which “aptazyme ON/OFF ratio” value is on record?
A: Its value is 1.27.

Q: For U7C U8G G9U U10A U11C C12G C13U, which “aptazyme ON/OFF ratio” value is on record?
A: Its value is 1.19.

Q: For U7C U8G G9U U10A U11C C12G C13A, which “aptazyme ON/OFF ratio” value is on record?
A: Its value is 1.16.

Q: With U7C U8G G9C U10C U11C C13G as the variant, how does the “aptazyme ON/OFF ratio” value read?
A: The value was 1.03.

Q: Which “aptazyme ON/OFF ratio” value does the source give for U7C U8G G9C U10C U11C C13U here?
A: Its value is 1.02.

Q: Which “aptazyme ON/OFF ratio” value does the source give for U7C U8G G9C U10C U11C C13A here?
A: Its value is 1.03.

Q: With U7C U8G G9U U10C U11A C12U as the variant, how does the “aptazyme ON/OFF ratio” value read?
A: Its value is 1.41.

Q: With U7C U8G G9U U10C U11A C12G as the variant, how does the “aptazyme ON/OFF ratio” value read?
A: The value was 1.26.

Q: With U7C U8G G9U U10C U11A C12A as the variant, how does the “aptazyme ON/OFF ratio” value read?
A: The value was 1.43.

Q: Which “aptazyme ON/OFF ratio” value does the source give for U7C U8G G9U C12A C13U here?
A: Its value is 1.37.

Q: Which “aptazyme ON/OFF ratio” value does the source give for U7C U8G G9U C12A C13G here?
A: The value was 1.27.

Q: For U7C U8G G9U C12A C13A, which “aptazyme ON/OFF ratio” value is on record?
A: The value was 1.42.

Q: For U7C U8G G9C U10G U11G C12U C13A, which “aptazyme ON/OFF ratio” value is on record?
A: The value was 1.06.

Q: For U7C U8G G9C U10G U11G C12U C13G, which “aptazyme ON/OFF ratio” value is on record?
A: The value was 1.09.

Q: Which “aptazyme ON/OFF ratio” value does the source give for U7C U8G G9C U10G U11G C12U C13U here?
A: The value was 1.11.

Q: With U7C U8G G9C U10G U11G C12A C13G as the variant, how does the “aptazyme ON/OFF ratio” value read?
A: The value was 1.11.

Q: Which “aptazyme ON/OFF ratio” value does the source give for U7C U8G G9C U10G U11G C12A C13A here?
A: The value was 1.15.

Q: With U7C U8G G9C U10G U11G C12A C13U as the variant, how does the “aptazyme ON/OFF ratio” value read?
A: The value was 1.14.

Q: Which “aptazyme ON/OFF ratio” value does the source give for U7C U8G G9C U10G U11A C13G here?
A: Its value is 1.19.

Q: For U7C U8G G9C U10G U11A C13A, which “aptazyme ON/OFF ratio” value is on record?
A: Its value is 1.3.

Q: Which “aptazyme ON/OFF ratio” value does the source give for U7C U8G G9C U10G U11A C13U here?
A: The value was 1.16.

Q: Which “aptazyme ON/OFF ratio” value does the source give for U7C U8G G9C U11A C12U here?
A: The value was 1.28.

Q: Which “aptazyme ON/OFF ratio” value does the source give for U7C U8G G9C U11A C12G here?
A: Its value is 1.16.

Q: Which “aptazyme ON/OFF ratio” value does the source give for U7C U8G G9C U11A C12A here?
A: Its value is 1.22.

Q: For U7C U8G G9C U10A U11G C13A, which “aptazyme ON/OFF ratio” value is on record?
A: The value was 1.19.

Q: Which “aptazyme ON/OFF ratio” value does the source give for U7C U8G G9C U10A U11G C13G here?
A: Its value is 1.03.
